Measured values reported in the Immune Epitope Database (IEDB).

Tests used:
[1] = target: HLA-B*57:01; assay: IEDB peptide-MHC binding, purified MHC/competitive/fluorescence; filed as Kd, often an IC50 or EC50 that approximates it; ≥ and ≤ were set here for values at or beyond the usual limits of such assays
[2] = target: HLA-B*39:01; assay: as above
[3] = target: HLA-A*02:01; assay: as above
[4] = target: HLA-A*11:01; assay: as above; conditions: source organism: Vibrio cholerae V52
[5] = target: HLA-A*02:06; assay: as above; conditions: source organism: Vibrio cholerae V52
[6] = target: HLA-B*15:01; assay: as above
[7] = target: HLA-A*30:01; assay: as above; conditions: source organism: Vibrio cholerae V52
[8] = target: HLA-B*15:17; assay: as above
[9] = target: HLA-B*40:01; assay: IEDB peptide-MHC binding, purified MHC/direct/fluorescence; filed as Kd, often an IC50 or EC50 that approximates it; ≥ and ≤ were set here for values at or beyond the usual limits of such assays; conditions: source organism: Vibrio cholerae
[10] = target: HLA-A*31:01; assay: as above; conditions: source organism: Vibrio cholerae
[11] = target: HLA-A*02:19; assay: as above
[12] = target: HLA-B*27:05; assay: as above; conditions: source organism: Vibrio cholerae
[13] = target: HLA-B*15:09; assay: as above; conditions: source organism: Vibrio vulnificus CMCP6
[14] = target: HLA-B*48:01; assay: as above; conditions: source organism: Vibrio cholerae
[15] = target: HLA-A*26:02; assay: as above; conditions: source organism: Vibrio vulnificus CMCP6
[16] = target: HLA-A*02:12; assay: as above
[17] = target: HLA-A*01:01; assay: as above; conditions: source organism: Vibrio cholerae
[18] = target: HLA-A*03:01; assay: as above
[19] = target: HLA-B*08:01; assay: as above; conditions: source organism: Vibrio vulnificus CMCP6
[20] = target: HLA-B*07:02; assay: as above
[21] = target: HLA-B*51:01; assay: as above; conditions: source organism: Vibrio vulnificus CMCP6
[22] = target: HLA-B*18:01; assay: as above; conditions: source organism: Vibrio cholerae
[23] = target: HLA-A*29:02; assay: as above
[24] = target: HLA-A*69:01; assay: as above; conditions: source organism: Vibrio cholerae
[25] = target: HLA-B*58:01; assay: as above; conditions: source organism: Vibrio vulnificus CMCP6
[26] = target: HLA-A*02:01; assay: IEDB peptide-MHC binding, purified MHC/competitive/fluorescence; ≥ and ≤ were set here for values at or beyond the usual limits of such assays; conditions: source organism: Zaire ebolavirus
[27] = target: HLA-A*11:01; assay: as above
[28] = target: HLA-B*08:01; assay: as above
[29] = target: HLA-B*07:02; assay: as above
[30] = target: HLA-A*24:02; assay: as above; conditions: source organism: Zaire ebolavirus
[31] = target: HLA-A*26:01; assay: IEDB peptide-MHC binding, purified MHC/competitive/fluorescence; filed as Kd, often an IC50 or EC50 that approximates it; ≥ and ≤ were set here for values at or beyond the usual limits of such assays; conditions: source organism: Zaire ebolavirus
[32] = target: HLA-B*27:03; assay: as above; conditions: source organism: Zaire ebolavirus
[33] = target: HLA-B*46:01; assay: as above; conditions: source organism: Zaire ebolavirus
[34] = target: HLA-B*51:01; assay: as above; conditions: source organism: Zaire ebolavirus
[35] = target: HLA-B*18:01; assay: as above; conditions: source organism: Zaire ebolavirus
[36] = target: HLA-A*69:01; assay: as above; conditions: source organism: Zaire ebolavirus
[37] = target: HLA-A*02:03; assay: IEDB peptide-MHC binding, purified MHC/direct/fluorescence; filed as Kd, often an IC50 or EC50 that approximates it; ≥ and ≤ were set here for values at or beyond the usual limits of such assays; conditions: source organism: Zaire ebolavirus
[38] = target: HLA-A*23:01; assay: as above; conditions: source organism: Zaire ebolavirus
[39] = target: HLA-A*02:16; assay: as above; conditions: source organism: Zaire ebolavirus
[40] = target: HLA-A*68:02; assay: as above; conditions: source organism: Zaire ebolavirus
[41] = target: HLA-A*24:03; assay: as above; conditions: source organism: Zaire ebolavirus
[42] = target: HLA-A*02:11; assay: as above; conditions: source organism: Zaire ebolavirus
[43] = target: HLA-A*03:01; assay: IEDB peptide-MHC binding, purified MHC/competitive/fluorescence; ≥ and ≤ were set here for values at or beyond the usual limits of such assays; conditions: source organism: Variola virus
[44] = source organism: Vibrio cholerae V52
[45] = source organism: Vibrio vulnificus CMCP6
[46] = source organism: Zaire ebolavirus

For TTILGLLPM, the Kd [1, 44] was 3.58 µM, the Kd [2, 44] was 0.618 µM and the Kd [3, 44] was ≥ 20 µM. For the same sequence, the Kd [4] was ≥ 20 µM, the Kd [5] was 0.0057 µM and the Kd [6, 44] was 0.308 µM. It also gave a Kd [7] of 0.677 µM, a Kd [8, 44] of 0.0387 µM and a Kd [9] of 0.189 µM. The Kd [10] was ≥ 20 µM, the Kd [11, 45] was ≥ 20 µM and the Kd [12] was ≥ 20 µM. The Kd [13] was 7.7 µM, the Kd [14] was ≥ 20 µM and the Kd [15] was ≤ 0.001 µM. The Kd [16, 45] was ≥ 20 µM, the Kd [17] was ≥ 20 µM and the Kd ([18]; source organism: Vibrio cholerae) was ≥ 20 µM. The Kd [19] was ≥ 20 µM, the Kd [20, 45] was ≥ 20 µM and the Kd [21] was ≥ 20 µM. The Kd [22] was 0.012 µM, the Kd [23, 45] was 0.016 µM and the Kd [24] was 0.0016 µM. It also gave a Kd [25] of 0.329 µM.

GRRTRREAI was tested, and the IC50 [26] was ≥ 83.2 µM, the IC50 [27, 46] was ≥ 297 µM and the IC50 [28, 46] was 7.09 µM. For the same sequence, the IC50 [29, 46] was ≥ 102 µM.

For APFARLLNL, the IC50 [26] was ≥ 161 µM, the IC50 [30] was 5.54 µM and the IC50 [28, 46] was 7.08 µM. The IC50 [29, 46] was 0.633 µM, the Kd [31] was ≥ 20 µM and the Kd [1, 46] was ≥ 20 µM. For the same sequence, the Kd [32] was ≥ 20 µM, the Kd [33] was ≥ 20 µM and the Kd [2, 46] was ≥ 20 µM. For the same sequence, the Kd [3, 46] was ≥ 20 µM, the Kd [34] was ≥ 20 µM and the Kd [35] was ≥ 20 µM. For the same sequence, the Kd [6, 46] was ≥ 20 µM, the Kd [36] was ≥ 20 µM and the Kd [8, 46] was ≥ 20 µM. For the same sequence, the Kd [11, 46] was ≥ 20 µM, the Kd [37] was ≥ 20 µM and the Kd [38] was ≥ 20 µM. The Kd [16, 46] was ≥ 20 µM, the Kd [39] was ≥ 20 µM and the Kd [18, 46] was ≥ 20 µM. The Kd [40] was ≥ 20 µM, the Kd [20, 46] was 0.0218 µM and the Kd [41] was ≥ 20 µM. For the same sequence, the Kd [42] was ≥ 20 µM and the Kd [23, 46] was ≥ 20 µM.

VARKHHTKI was tested, and the IC50 ([27]; source organism: Variola virus) was ≥ 70.5 µM, the IC50 [43] was ≥ 110 µM and the IC50 ([28]; source organism: Variola virus) was ≥ 348 µM. The IC50 ([29]; source organism: Variola virus) was 10.5 µM.

MVTLRKERL showed an IC50 [26] of 18.8 µM, an IC50 [30] of 4.33 µM and an IC50 [28, 46] of 13.9 µM. For the same sequence, the IC50 [29, 46] was 10.4 µM.
